B1: CCDC89 (parent)
chain: LNAELEEKMMQEAEKLKAQGEYSR
B2: EIF5 (parent)
chain: KQTIGNSCKACGYRGMLDTHHKLC

Variants of: B1
Experiment: protein stability index of a GFP-peptide fusion (GPS, HEK-293T) (PSI 1-6); higher = more stable
Conditions: c terminus: a fixed tail appended
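Also: lentivirally expressed fusions sorted by FACS into six bins by GFP to DsRed ratio, PSI derived from sequencing read proportions per bin multiplied by bin number.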

Protein stability index: each site, then its substitutions
Y22: C 5.25, D 5.99, S 5.28, I 5.29, G 5.63, Q 5.64, N 5.79, L 5.34, K 5.55, F 4.46, M 5.29, E 4.65
G20: Y 4.44, I 3.68, P 5.43, A 4.98, N 4.99, S 4.91, H 4.35, E 4.82, R 4.85, K 5.22, C 2.96, L 2.99, V 5.31
S23: A 4.62, N 4.51, H 3.95, L 5.2, V 4.43, D 5.7, M 5.11, K 4.92, Q 5.04, T 4.98, C 4.73, F 4.75, I 4.19, W 4.97, Y 4.47, G 5.13
Q19: L 2.99, N 4.82, K 5.3, D 5.85, I 3.83, H 4.74, C 4.66, P 5.12, E 5.84, F 3.64, V 5.57, W 4.62, Y 2.53, G 4.95, T 5.18, A 5.24, S 5.19, M 4.13
R24: N 5.03, D 5.67, P 5.48, G 5.81, W 3.81, Q 4.63, V 5.64, A 5.49, F 4.66, H 5.78, S 5.38, M 4.99, I 4.86, K 5.53, C 5.37
A18: R 4.31, P 4.7, W 4.15, M 4.71, G 4.43, H 4.15, F 4.28, L 3.87, I 4.32, N 5.09, Q 5.3, T 5.07
E21: W 3.76, G 4.17, S 4.39, H 4.47, V 4.58, N 4.79, M 4.76, A 4.77, Y 5.03, L 4.16, I 4.62, C 4.29, R 4.98, K 5.46, T 4.19, D 4.92

Variants of: B2
Experiment: as above
Conditions: c terminus: a fixed tail appended

Protein stability index: each site, then its substitutions
T3: S 3.19, R 3.18, Q 3.06, N 3.31, V 2.38, D 4.01, H 3.67, A 3.04, M 3.5, Y 3.35, E 2.99, G 3.15, W 2.46, K 3.4, F 2.86, C 2.92, I 2.71, P 3.66, L 3.23
I4: T 3.29, G 3.56, D 3.95, W 2.82, V 3.57, S 3.75, N 3.63, Y 3.08, R 3.31, M 3.63, A 3.68, Q 4.17, K 3.41, E 3.92, F 3.02, L 3.73, P 3.44, H 3.39, C 3.24
C8: K 2.28, A 2.06, N 2.78, D 2.48, P 1.88, L 3.05, V 1.78, G 2.03, E 2.68, S 2.19, H 1.91, Q 1.91, I 1.74, Y 1.44, W 1.95, F 1.44, R 1.69, M 1.86, T 2.05
G12: T 2.5, E 2.93, Q 2.54, K 3.06, H 2.36, W 1.78, S 1.52, N 2.25, P 1.84, C 2.56, A 1.37, I 2.29, D 2.13, Y 2.14, V 1.62, F 1.73, R 2.66, L 1.92, M 2.76
A10: M 3.12, S 3.44, T 3.36, Y 4.03, Q 3, C 3.09, R 3.27, N 2.85, K 3.29, V 3.33, I 3.86, E 4.16, L 3.3, G 2.71, D 3.68, P 2.63, W 3.01, H 4.19, F 4.01
G5: K 3.26, V 3.46, N 3.44, Q 3.3, R 2.53, M 4.13, H 2.96, L 2.37, Y 2.81, I 3.12, T 2.99, C 3, W 2.34, D 3.53, P 3.41, E 4.09, S 2.95, F 2.64, A 3.23
S7: D 3.83, C 3.5, L 4.11, R 3.11, E 3.82, K 3.93, Q 4.08, W 2.64, N 3.25, M 3.58, A 3.96, V 3.72, F 3.91, G 3.5, I 4.31, T 3.29, H 4.11, P 2.91, Y 4.17
Y13: E 3.75, D 3.03, C 3.61, A 3.7
Q2: I 2.51, A 3.48, G 3.22, P 3.5, H 3.6, W 1.93, V 3, C 3.09, Y 2.19, D 2.84, E 3.74, F 2.54, K 3.18, L 2.61, M 2.85, N 3.02, T 3.05, S 3.05, R 2.56
N6: H 3.03, G 3.33, T 3.66, W 2.62, I 3.84, R 2.84, V 3.52, F 3.34, K 3.11, C 3.71, Y 3.92, S 3.24, Q 3.95, P 3.12, A 3.1, L 2.96, D 3.63, E 3.62, M 2.83
K9: N 2.79, G 2.82, F 2.16, E 3.5, P 4.46, I 2.97, H 3.08, T 3.3, S 2.88, L 2.6, D 3.87, Q 3.11, C 3.97, M 2.85, A 3.57, R 2.79, W 2.89, V 3.13, Y 2.61
C11: K 1.88, I 1.52, M 1.73, V 2.88, G 1.69, P 1.92, Y 2.4, N 1.94, Q 2.26, F 2.17, S 1.9, D 1.7, T 1.56, A 2.2, E 1.55, R 1.61, H 1.53, W 2.06, L 2.28
K1: M 2.36, Y 2.55, S 3.31, C 2.97, V 2.95, L 2.9, Q 3.14, P 3.6, W 3.05, R 3.18, G 3.35, E 2.95, A 2.98, H 2.95, N 3.22, D 3.88, T 3.48, F 2.55, I 2.04
